According to PMC8319318 (2021):

Target: actin filament (skeletal muscle actin) (Oryctolagus cuniculus, UniProt P68135)
Test: TIRF microscopy (steady-state fluorescence density)

Kd: 7.82 nM
B1: anillin (protein)
chain: MDPFTEKLLERTRARRENLQRKMAERPTAAPRSMTHAKRARQPLSEASNQQPLSGGEEKSCTKPSPSKKRCSDNTEVEVSNLENKQPVESTSAKSCSPSPVSPQVQPQAADTISDSVAVPASLLGMRRGLNSRLEATAASSVKTRMQKLAEQRRRWDNDDMTDDIPESSLFSPMPSEEKAASPPRPLLSNASATPVGRRGRLANLAATICSWEDDVNHSFAKQNSVQEQPGTACLSKFSSASGASARINSSSVKQEATFCSQRDGDASLNKALSSSADDASLVNASISSSVKATSPVKSTTSITDAKSCEGQNPELLPKTPISPLKTGVSKPIVKSTLSQTVPSKGELSREICLQSQSKDKSTTPGGTGIKPFLERFGERCQEHSKESPARSTPHRTPIITPNTKAIQERLFKQDTSSSTTHLAQQLKQERQKELACLRGRFDKGNIWSAEKGGNSKSKQLETKQETHCQSTPLKKHQGVSKTQSLPVTEKVTENQIPAKNSSTEPKGFTECEMTKSSPLKITLFLEEDKSLKVTSDPKVEQKIEVIREIEMSVDDDDINSSKVINDLFSDVLEEGELDMEKSQEEMDQALAESSEEQEDALNISSMSLLAPLAQTVGVVSPESLVSTPRLELKDTSRSDESPKPGKFQRTRVPRAESGDSLGSEDRDLLYSIDAYRSQRFKETERPSIKQVIVRKEDVTSKLDEKNNAFPCQVNIKQKMQELNNEINMQQTVIYQASQALNCCVDEEHGKGSLEEAEAERLLLIATGKRTLLIDELNKLKNEGPQRKNKASPQSEFMPSKGSVTLSEIRLPLKADFVCSTVQKPDAANYYYLIILKAGAENMVATPLASTSNSLNGDALTFTTTFTLQDVSNDFEINIEVYSLVQKKDPSGLDKKKKTSKSKAITPKRLLTSITTKSNIHSSVMASPGGLSAVRTSNFALVGSYTLSLSSVGNTKFVLDKVPFLSSLEGHIYLKIKCQVNSSVEERGFLTIFEDVSGFGAWHRRWCVLSGNCISYWTYPDDEKRKNPIGRINLANCTSRQIEPANREFCARRNTFELITVRPQREDDRETLVSQCRDTLCVTKNWLSADTKEERDLWMQKLNQVLVDIRLWQPDACYKPIGKP
modifications: anillin C-terminal GFP tag; F-actin stabilised with biotin-phalloidin
